From the supplement of paper PMC9170038

Test system: MS2 coat protein
Assay: apparent KD of MS2 coat protein; designed switch direction (-1 OFF switch, 1 ON switch): 1; higher = weaker reporter binding
Procedure, shortened: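 Designed RNA switches sharing common flanks were transcribed on Illumina chips by stalled E. coli RNA polymerase. They were titrated with SNAP-549-labelled MS2 coat protein, from 0.7 or 1.5 nM doubling to 3 µM, in Tris-HCl pH 7.5 buffer with KCl, MgCl2, BSA, DTT, tRNA and Tween-20. Titrations ran without input, with 200 uM small-molecule ligand, or with an oligonucleotide input. The apparent KD of each design is the median over its clusters, after curve-fitting of normalised cluster fluorescence.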

[1] = Eterna round: R95, input ligand: FMN 200 uM
[2] = Eterna round: R95, input ligand: microRNA oligo, concentration not stated
[3] = Eterna round: R95, input ligand: none
[4] = input ligand: microRNA oligo, concentration not stated

Sequence | apparent KD of MS2 coat protein [1] | apparent KD of MS2 coat protein [2] | apparent KD of MS2 coat protein [3] | apparent KD of MS2 coat protein [4] | apparent KD of MS2 coat protein (input ligand: FMN 200 uM) | apparent KD of MS2 coat protein (input ligand: none)
CACAAUCUAUCUGAGGAUAUCAUGAAAAAAACAUGAGGAUCACCCAUGUGCAGGAAAACUGCAUAUGAGAAGGCAGAUAGAUUGA [salish99_SS2_r3_016] (puzzle: Same State 2) | 38 nM | 1260 nM | 678 nM | – | – | –
CACAAUCUAUCUGAGGAUAUCAUGAAAAAAACAUGAGGAUCACCCAUGUGCAGGAAAACUGCAUAUGAGAAGGCAGAUAGAUUGC [salish99_SS2_r3_013] (Eterna round: R96, puzzle: Same State 2) | – | – | – | 452 nM | – | –
CACAAUCUAUCUGAGGAUAUCAUGAAAAAAACAUGAGGAUCACCCAUGUGCAGGAAAACUGCAUAUGAGAAGGCAGAUAGAUUGC [salish99_SS2_r3_013] (puzzle: Same State 2) | 27.9 nM | 460 nM | 943 nM | – | – | –
CACAUGAGGAUCACCCAUGUCAGACAAAGGAGCAUGACGCUACAGGAUAUGUGAGCGACUAACGAAUAGAAGGGUAGCCAUCAC [Eternabot solution 27] (Eterna round: R96, puzzle: Same State NG 3) | – | – | – | 20.8 nM | 27.5 nM | 29.3 nM
CAGCACUAUCGAGAGGAUAUGCGGUGAUGGACAUGAGGAUCACCCAUGUUAGCGAUAGCAUCACGGCAGAAGGCUCUGCUGCUGC [Soteed Omei mod 37] (puzzle: Same State 2) | 10.6 nM | 17.6 nM | 24.1 nM | – | – | –
CAGCACUGUCGAGAGGAUAUGCGGUGGUAGACAUGAGGAUCACCCAUGUUAGCGACAGCAUCACGGCAGAAGGCUCUGCUGCUGC [Soteed Omei mod 41] (puzzle: Same State 2) | 37.3 nM | 96.2 nM | 146 nM | – | – | –
CAGCGCUGUCGAGAGGAUAUGCGGUGAUGGACAUGAGGAUCACCCAUGUAAGCGAUAGCAUUACGGCAGAAGGCUCUGCAGCUGC [Riaranzaes] (Eterna round: R96, puzzle: Same State 2) | – | – | – | 17.2 nM | – | –
CAGCGCUGUCGAGAGGAUAUGCGGUGAUGGACAUGAGGAUCACCCAUGUUAGCGACAGCAUCACGGCAGAAGGCUCUACCGCUGG [Soteed Omei mod 42] (puzzle: Same State 2) | 12.6 nM | 9.78 nM | 9.61 nM | – | – | –
CAGCGCUGUCGAGAGGAUAUGCGGUGAUGGACAUGAGGAUCACCCAUGUUAGCGAUAGCAUUACGGUAGAAGGCUCUACAGCUGC [Soteed no mod] (puzzle: Same State 2) | 15 nM | 25.5 nM | 30.2 nM | – | – | –
CAGCGCUGUCGAGAGGAUAUGCGGUGAUGGACAUGAGGAUCACCCAUGUUAGCGAUAGCAUUACGGUAGAAGGCUCUACAGCUGC [Soteed] (Eterna round: R96, puzzle: Same State 2) | – | – | – | 32.1 nM | 18.7 nM | 47.4 nM
CAGCGCUGUCGAGAGGAUAUGCGGUGGUGGACAUGAGGAUCACCCAUGUUAGCGAUAGCAUUACGGUAGAAGGCUCUACAGCUGC [Soteed - 2] (puzzle: Same State 2) | 30.9 nM | 22.4 nM | 33 nM | – | – | –
CAGCGCUGUUGAGAGGAUAUGCGGUGAUGGACAUGAGGAUCACCCAUGUUAGCGACAGCAUUACGGUAGAAGGCUUCACAGCUGC [Soteed Omei mod 16] (puzzle: Same State 2) | 38.9 nM | 126 nM | 235 nM | – | – | –
CAGUGCUGUCGAGAGGAUAUGCGGUGAUGGACAUGAGGAUCACCCAUGUUAGCGACAGCGUCACGGCAGAAGGCUCUACCCACUG [Soteed Omei mod 46] (puzzle: Same State 2) | 11.7 nM | 15.3 nM | 18.2 nM | – | – | –
CCAACAUACAAUUUAAGAUCACAUGAGGAUCACCCAUGUAUGCAGGAUAUCAGCUCGUGUAGAGCUGAGAAGGGCAAUUUAAUU [SSNG3/1-A4] (Eterna round: R96, puzzle: Same State NG 3) | – | – | – | 193 nM | 103 nM | 265 nM
CCAACGUACAAUUUAGAUCUACAUGAGGAUCACCCAUGUACGGAGGAUAUCAGCUCGUGUAGAGCUGAGAAGGCCGAAUUAAUU [SSNG3/2-A4] (Eterna round: R96, puzzle: Same State NG 3) | – | – | – | 298 nM | 88 nM | 465 nM
CCAACGUACAAUUUAGAUCUACAUGAGGAUCACCCAUGUACGGAGGAUAUCAGCUCGUUUAGAGCUGAGAAGGCCGAAUUAAUU [SSNG3/2-A3] (Eterna round: R96, puzzle: Same State NG 3) | – | – | – | 238 nM | – | –

Sequence | apparent KD of MS2 coat protein [1] | apparent KD of MS2 coat protein [2] | apparent KD of MS2 coat protein [3] | apparent KD of MS2 coat protein [4] | apparent KD of MS2 coat protein (input ligand: FMN 200 uM) | apparent KD of MS2 coat protein (input ligand: none)
CCAAUGUACAAUUUAGAUCUACAUGAGGAUCACCCAUGUACAGAGGAUAUCAGCUCGAUUAGAGCUGAGAAGGCUGAAUUAAUU [SSNG3/3-A2] (Eterna round: R96, puzzle: Same State NG 3) | – | – | – | 135 nM | 137 nM | 266 nM
CCAGCAUCACGAGGAUAUGGAGGUUCCCGAAAGACAUGAGGAUCACCCAUGUAUGUACGCCGCCUUCAGAAGGUGUAUAAGCGA [Eternabot solution 31] (Eterna round: R96, puzzle: Same State NG 2) | – | – | – | 38.2 nM | 65.7 nM | 58.7 nM
CCAUAGUACAAUUUAGAUCUACAUGAGGAUCACCCAUGUACUGAGGAUAUCAGCUCGAUUAGAGCUGAGAAGGCAGAAUUAAUU [SSNG3/5-A2] (Eterna round: R96, puzzle: Same State NG 3) | – | – | – | 96.8 nM | 58.4 nM | 122 nM
CCCAGCGUUACAGGAUAUGGUGAGGAUCACCCACUAGAAGGGUAAACAUGUGCGUCGGACAUGAGGAUCACCCAUGUAGGGCGU (Eterna round: R96, puzzle: Same State NG 1) | – | – | – | 17.9 nM | 20.6 nM | 27 nM
CCCAGGCAUGGAGGAUAUGGGAACAUGAGGAUCACCCAUGUUAACUCCGUAGGCGGCUUAAGGCACCAGAAGGCUACGGCUGGU [Eternabot solution 15] (Eterna round: R96, puzzle: Same State NG 2) | – | – | – | 67.8 nM | 112 nM | 83 nM
CCGAAAGGAGUAGGAUAUGUAGGAUAUUCCUACAUGAGGAUCACCCAUGUUCGCAUGGAAGAAGGACAGAAGGACACGGAAACG [pwkr ssNG2 2FMN + 1F5.14] (Eterna round: R96, puzzle: Same State NG 2) | – | – | – | 19 nM | 212 nM | 66.2 nM
CCGAUUUAUGGAGGAUAUGGAGCCUUAUUGGCUCCAGAAGGUCAAUACAUGAGGAUCACCCAUGUGUCGGCGGUCAAUAGACCG [Eli NG1ss - 72] (Eterna round: R96, puzzle: Same State NG 1) | – | – | – | 44.2 nM | 61.7 nM | 128 nM
CCGCGCUGUCGAGAGGAUAUGCGGUGAUGGACAUGAGGAUCACCCAUGUUAGCGAUAGCAUUACUGUAGAAGGCUCUACAGCGGC [JL-ss2-3.10 ViennaUCT mod] (puzzle: Same State 2) | 12.9 nM | 18.3 nM | 21.3 nM | – | – | –
CCGCUCUAUGGAGGAUAUGGGCCUGCCCGGGAUAACGGGCCUAAUACAUGAGGAUCACCCAUGUCCCAGAAGGCCGCUAGAGCC [Errexexe] (Eterna round: R96, puzzle: Same State NG 2) | – | – | – | 348 nM | 120 nM | 471 nM
CCGGCAAGUAUAGGAUAUCCCGCUACAGAAGCGGGAGAAGGGUGCCAAACAUGAGGAUCACCCAUGUACACCGGAAAUAUAUAA [Soorve] (Eterna round: R96, puzzle: Same State NG 1) | – | – | – | 31.2 nM | 36.4 nM | 34.6 nM
CCGGGUAAUGGAGGAUAUGGAGCCUUAUUGGCUCCAGAAGGUCAAUAACAUGAGGAUCACCCAUGUCCGGCGGUCAAUAGACCG [Eli NG1ss - 68] (Eterna round: R96, puzzle: Same State NG 1) | – | – | – | 202 nM | 87.5 nM | 775 nM
CCGGUUAAUGGAGGAUAUGGAGCCUUAUUGGCUCCAGAAGGCUAACAUGAGGAUCACCCAUGUUUACCGGCGGUCAAUAGACCG [Eli NG1ss - 62] (Eterna round: R96, puzzle: Same State NG 1) | – | – | – | 11 nM | 11 nM | 18.8 nM
CCGGUUUAUGGAGGAUAUGGAGCCUUAUUGGCUCCAGAAGGCUAAUAACAUGAGGAUCACCCAUGUCGGCGGUCUAAUGACCGA [Eli NG1ss - 56] (Eterna round: R96, puzzle: Same State NG 1) | – | – | – | 21.8 nM | – | –
CCGGUUUAUGGAGGAUAUGGAGCCUUAUUGGCUCCAGAAGGUCAAUAACAUGAGGAUCACCCAUGUCCGGCGGUCAAUAGACCG [Eli NG1ss - 69] (Eterna round: R96, puzzle: Same State NG 1) | – | – | – | 146 nM | 120 nM | 349 nM
CCUUAGUACAAUUUAGAUCUACAUGAGGAUCACCCAUGUACUGAGGAUAUCAGCUCGAAUAGAGCUGAGAAGGCAGAAGUACUU [SSNG3/7-A1] (Eterna round: R96, puzzle: Same State NG 3) | – | – | – | 154 nM | 60.3 nM | 130 nM
CCUUGUAGCGGAGGAUAUGGGCCUCACUCAGUCAAAGAGUGAGAAACAUGAGGAUCACCCAUGUCCCAGAAGGCCGCUGCAUGG [Ridizaer] (Eterna round: R96, puzzle: Same State NG 2) | – | – | – | 13.8 nM | 12.1 nM | 19.1 nM
